Reference: article PMC6856053 (Frontiers in Neuroscience, 2019)

How the values were obtained:
Experiment in all cases: pull-down; GST-MIT domain (bait) and myc-6His MIM (prey), 2 nmole each, on 20 ul glutathione sepharose in 1 ml PBS + 0.1% NP-40 + 1 mM DTT, overnight 4 C; Coomassie and anti-myc blot
Conditions in all cases: both partners purified
[1] = molecular target: T1, GST fused to the spastin MIT domain (residues 110-199) E112K (human, UniProt Q9UBP0 110-199, E112K)
T1 construct: spastin, residues 110-199 holding the MIT domain; patient mutation; Cloned into the BamHI-XhoI sites of pGEX-4T2; source: E. coli BL21(DE3)pLysS, purified (GST sepharose, eluted with 10 mM glutathione)
T1 sequence (looked up): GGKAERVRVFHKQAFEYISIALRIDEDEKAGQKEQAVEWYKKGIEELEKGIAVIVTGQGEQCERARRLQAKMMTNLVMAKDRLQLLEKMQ

[2] = molecular target: T2, GST fused to the spastin MIT domain (residues 110-199) L195V (human, UniProt Q9UBP0 110-199, L195V)
T2 construct: spastin, residues 110-199 holding the MIT domain; patient mutation; Cloned into the BamHI-XhoI sites of pGEX-4T2; source: E. coli BL21(DE3)pLysS, purified (GST sepharose, eluted with 10 mM glutathione)
T2 sequence (looked up): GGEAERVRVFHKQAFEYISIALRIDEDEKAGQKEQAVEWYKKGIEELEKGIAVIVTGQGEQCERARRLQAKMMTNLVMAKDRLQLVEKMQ

[3] = molecular target: T3, GST fused to the spastin MIT domain (residues 110-199) N184T (human, UniProt Q9UBP0 110-199, N184T)
T3 construct: spastin, residues 110-199 holding the MIT domain; patient mutation; Cloned into the BamHI-XhoI sites of pGEX-4T2; source: E. coli BL21(DE3)pLysS, purified (GST sepharose, eluted with 10 mM glutathione)
T3 sequence (looked up): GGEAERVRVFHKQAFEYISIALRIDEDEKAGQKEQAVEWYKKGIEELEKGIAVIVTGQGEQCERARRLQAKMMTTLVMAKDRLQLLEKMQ

[4] = molecular target: T4, GST fused to the wild-type spastin MIT domain (residues 110-199) (human, UniProt Q9UBP0 110-199)
T4 construct: spastin, residues 110-199 holding the MIT domain; Cloned into the BamHI-XhoI sites of pGEX-4T2; also called WT; source: E. coli BL21(DE3)pLysS, purified (GST sepharose, eluted with 10 mM glutathione)
T4 sequence (looked up): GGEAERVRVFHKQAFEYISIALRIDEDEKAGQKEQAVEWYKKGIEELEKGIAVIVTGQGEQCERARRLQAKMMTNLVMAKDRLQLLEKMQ

[5] = molecular target: T5, GST fused to the spastin MIT domain (residues 110-199) R115C (human, UniProt Q9UBP0 110-199, R115C)
T5 construct: spastin, residues 110-199 holding the MIT domain; patient mutation (SPAST c.343C>T); Cloned into the BamHI-XhoI sites of pGEX-4T2; source: E. coli BL21(DE3)pLysS, purified (GST sepharose, eluted with 10 mM glutathione)
T5 sequence (looked up): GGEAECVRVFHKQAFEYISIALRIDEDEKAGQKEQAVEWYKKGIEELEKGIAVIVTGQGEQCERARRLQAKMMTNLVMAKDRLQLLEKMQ

[6] = molecular target: T6, GST fused to the spastin MIT domain (residues 110-199) V162I (human, UniProt Q9UBP0 110-199, V162I)
T6 construct: spastin, residues 110-199 holding the MIT domain; benign polymorphism; Cloned into the BamHI-XhoI sites of pGEX-4T2; also called MIT containing the benign polymorphism V162I; source: E. coli BL21(DE3)pLysS, purified (GST sepharose, eluted with 10 mM glutathione)
T6 sequence (looked up): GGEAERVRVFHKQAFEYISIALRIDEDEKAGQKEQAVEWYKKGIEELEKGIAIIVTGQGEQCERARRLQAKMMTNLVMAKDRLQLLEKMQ

Measured: binding result

B1: single MIM of CHMP1B, residues 174-199, myc- and 6His-tagged (domain or fragment, UniProt Q7LBR1 174-199, looked up)
chain: GSVGTSVASAEQDELSQRLARLRDQV
notes: CHMP1B, residues 174-199 holding the single MIM; Cloned into the BamHI-NotI sites of pGEX-6P-1; also called CHMP1B MIM; CHMP1B (amino acids 174-199); source: E. coli BL21(DE3)pLysS, purified (GST sepharose, GST removed with Prescission protease)
binds: [1] | [2] | [3] | [4] | [5] | [6]
